The values that follow come from patent US20240400716A1 (UNIVERSITY OF PITTSBURGH OF THE COMMONWEALTH SYSTEM OF …, published 2024).

This assay concerns the target T1, human PSMA polypeptide (prostate specific membrane antigen) (human, UniProt Q04609 1-750).
T1 construct: also called PSMA protein
Description: binding to LNCaP cells expressing PSMA. How it is done:
Binding affinity and specificity to a human PSMA polypeptide were tested using LNCaP cells expressing the PSMA protein.

T1 sequence (Q04609 whole entry): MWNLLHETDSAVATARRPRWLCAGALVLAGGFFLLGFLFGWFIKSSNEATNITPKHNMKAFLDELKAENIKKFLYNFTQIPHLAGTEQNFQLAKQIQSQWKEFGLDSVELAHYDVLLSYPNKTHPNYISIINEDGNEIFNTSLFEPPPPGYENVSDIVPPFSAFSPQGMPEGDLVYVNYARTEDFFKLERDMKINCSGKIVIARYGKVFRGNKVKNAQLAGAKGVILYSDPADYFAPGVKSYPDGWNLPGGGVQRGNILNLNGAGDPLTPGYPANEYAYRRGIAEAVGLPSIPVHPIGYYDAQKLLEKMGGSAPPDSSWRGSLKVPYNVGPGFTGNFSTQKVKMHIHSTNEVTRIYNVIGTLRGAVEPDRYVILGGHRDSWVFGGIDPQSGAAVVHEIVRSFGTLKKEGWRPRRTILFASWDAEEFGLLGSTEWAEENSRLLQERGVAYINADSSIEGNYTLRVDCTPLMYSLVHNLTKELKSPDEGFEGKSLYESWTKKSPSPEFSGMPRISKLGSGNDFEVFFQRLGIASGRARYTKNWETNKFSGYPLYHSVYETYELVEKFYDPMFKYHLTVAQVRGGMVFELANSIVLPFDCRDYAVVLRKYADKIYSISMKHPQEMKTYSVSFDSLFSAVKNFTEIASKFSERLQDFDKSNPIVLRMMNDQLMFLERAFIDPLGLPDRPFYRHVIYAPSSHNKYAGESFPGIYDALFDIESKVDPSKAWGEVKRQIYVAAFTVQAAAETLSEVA

B1: Clone #3 (VH domain) (VHH)
VHH: EVQLVESGGGVVQPGRSLRLSCAASGFTFSSYAMHWVRQAPGKGLEWVATIYQDGSESEYVDSVKGRFTVSRDNAKNTLYLQMDSLRAEDTATYYCVGRGSTSITPVWGLGTLVTVSS
notes: Single human VH antibody domain from a phage library, not camelid; also called VH-Z4D2
B1 registered an EC50 of 4.59 nM.

B2: Clone #11 (VH domain) (VHH)
VHH: EVQLVESGGGVVQPGRSLRLSCAASGFTFSSYAMHWVRQAPGKGLEWVATIYQDGSESEYVDSVKGRFTVSIDNAKNTLYLQMDSLRAEDTATYYCVGRASTSITPVWGLGTLVTVSS
notes: Single human VH antibody domain from a phage library, not camelid
The molecule B2 had an EC50 of 1.81 nM.

B3: Clone #5 (VH domain) (VHH)
VHH: EVQLVESGGGMVQPGRSLRLSCAASGFTFSSYAMHWIRQAPGKGLEWVATIYQDGSESEYVDSVKGRFAVSRDNAKNTLYLQMDSLRAEDTATYYCVGRASASITPVWGLGTLVTVSS
notes: as for B2
B3 gave an EC50 of 2.95 nM.

B4: Clone #4 (VH domain) (VHH)
VHH: EVQLVESGGGVVQPGRSLRLSCAASGFTFSSYAMHWVRQAPGKGLEWVATIYQDGSESEYVDSVKGRFTVSRDDAKNTLYLQMDSLRAEDTATYYCVGRDSTSITPVWGLGTLVTVSS
notes: Single human VH antibody domain from a phage library, not camelid; also called VH-Fla; VH-F1a
Take B4: the EC50 was 3.05 nM.

B5: Clone #10 (VH domain) (VHH)
VHH: EVQMVESGGGVVQPGRSLRLSCAASGFTFSSYAMHWVRQAPGKGLEWVATIYQDGSESEYVDSVKGRFTVSIDNAKNTLYLQMDSLRAEDTATYYCVGRDSTSITPVWGLGTLVTVSS
notes: as for B2
As to B5, it took 8.7 nM to reach a half-maximal effect (EC50).

B6: Clone #2 (scFv) (scFv)
scFv: QVQLQQSGAEVKKPGESLKISCKGSGYSFTNHWIAWVRQMPGKGLEWMGIIYPGDSDTRYSPSFQGQVTISADKSISTAYLQWSSLKASDTAMYYCARAQVGAFDIWGQGTMVTVSSGGGGSGGSGSSGGGSQSALTQPASVSGSPGQSITISCTRARDDVGGDNFVSWYQQHPGKAPKLMIYDVSNRPSGVSNRFSGSKSGNTASLTISGLQAEDEADYYCSSYTSSSTLPVFGGGTQLTVLG
For B6, a half-maximal response (EC50) required 8.97 nM.

B7: Clone #1 (scFv) (scFv)
scFv: QVTLKESGAEVKKPGESLKISCKASGYSFTNYWIGWVRQMPGKGLEWMGIIYPGDSDTRYSPSFQGQVTISADKSISTAYLQWSSLKASDTAMYYCARQGGYYYGMDVWGQGTTVTVSSGGGGSGGSGSGGGGSVPVLTQPHSVSESPGKTVTISCTRSSGSIASNYVQWYQQRPGSSPTTVIYEDNQRPSGVPDRFSGSIDMSSNSASLTISGLRTEDEGDYYCQSYDSRNHVVFGGGTQLTVLG
Molecule B7 returned an EC50 of 6.56 nM.

B8: Clone #6 (VH domain) (VHH)
VHH: EVQLVESGGGLVQPGGSLRLSCTVSGFTFSSYAVSWVRQAPGQGLEWVSAIGAGGGTYYADSVKGRFTISRDNSKNTLYLQMNSLRAEDTAVYYCAKDGADWGQGTLVTVSS
notes: Single human VH antibody domain from a phage library, not camelid; also called VH-W5A4
In turn, B8 registered an EC50 of 32.7 nM.

B9: Clone #7 (VH domain) (VHH)
VHH: EVQLVESGGGLVQPGGSLRLSCTVSGFTFSSYAVSWVRQAPGQGLEWVSAIGAGGGTYYADSVKGRFTISRDNSKNTLYLQMNSLRAEDTAVYYCAKDGVDWGQGTLVTVSS
notes: as for B2
B9 returned an EC50 of 8.65 nM.

B10: Clone #9 (VH domain) (VHH)
VHH: EVQLVESGGGLVQPGGSLRLSCTVSGFTFDDYAVSWVRQAPGQGLEWVSSIGAGGGTYYADSVKGRFTISRDDSKDTLYLQMNSLRAEDTAVYYCAKDGVDWGQGTLVTVSS
notes: Single human VH antibody domain from a phage library, not camelid; also called VH-4mut
In the case of B10, it took 15.1 nM to reach a half-maximal effect (EC50). This EC50 lies about 1.7-fold higher than the previous one.

B11: Clone #8 (VH domain) (VHH)
VHH: EVQLVESGGGLVQPGGSLRLSCTVSGFTFSSYAVSWVRQAPGQGLEWVSSIGAGGGTYYADSVKGRFTISRDNSKNTLYLQMNSLRAEDTAVYYCAKDGADWGQGTLVTVSS
notes: as for B2
B11: the EC50 was found to be 10.8 nM. The EC50 values of the last two molecules are within 1.5-fold of each other.
